Experimental data as given in patent publication US9278119B2, “Treatment of prostate cancer and a method for determining the prognosis for prostate cancer patients” (WNTRESEARCH AB, priority 2011, dated 2016).
Where no end group is shown, it is not given here. The star is where a group is joined. For = O=C*

What was measured:
22Rv1 cells = assay: Matrigel invasion assay, 22Rv1 cells; assay type: cell-based, human; details: 24 h
Procedure: (§1) Four human PCa cell lines LNCaP, 22Rv1, PC-3, and DU145 were purchased from American Type Culture Collection [ATCC] (Manassas, Va.). The immortalized PNT2 normal human prostate epithelial cells (cat No. 95012613) were obtained from European Collection of Cell Cultures (ECACC), (Sigma-Aldrich, St. Louis, Mo.). LNCaP, 22Rv1, DU145 and PNT2 cells lines were cultured in RPMI-1640 medium, supplemented with 10% fetal bovine serum (FBS) and 1% pest (penicillin and streptomycin). PC-3 cells were grown in Hyclone Ham's F12 medium supplemented with 10% FBS and 1% pest. All in vitro experiments were performed when cells were ˜70% confluent. For invasion assay experiments cells were grown in serum free medium (SFM) for 24 hours. RPMI-1640 medium (R0883), FBS (F6178), penicillin streptomycin (P0781) were purchased from Sigma-Aldrich, whereas Ham's F12 medium (SH30026.01) was obtained from Thermo-Scientific (Waltham, Mass.). All cell lines were regularly tested for the absence of mycoplasma infection.
(§2) Cell invasion capacities were measured in a standard commercial invasion assay. In this study the inventors used BD BioCoat™ Matrigel™ Invasion Chambers (BD Biosciences, Bedford, Mass.) in accordance with the manufacturer's protocol. […] Invaded cells were counted either in an 460 inverted microscope or in Olympus BX51 Fluorescence Microscope (Olympus optical Co. Ltd, Japan).

DU145 cells = assay: Matrigel invasion assay, DU145 cells; assay type: cell-based, human; details: 24 h
Procedure: as §1, §2

LNCaP cells = assay: Matrigel invasion assay, LNCaP cells; assay type: cell-based, human; details: rWnt5a 0.4 μg/ml, 24 h, vs vehicle; FIG. 3B
Procedure: as §1, §2

PC3 cells [1] = assay: Matrigel invasion assay, PC3 cells; assay type: cell-based, human; details: rWnt5a 0.4 μg/ml, 24 h, vs vehicle; FIG. 3B
Procedure: as §1, §2

PC3 cells [2] = details: addition of rWnt5a to PC3 cells; report by Wang et al [26]; cited from earlier work

Molecule: formylated derivative of MDGCEL (SEQ. ID. NO. 2) (For-MDGCEL; listed as Homo sapiens) [Foxy-5, the N-formylated hexapeptide Foxy5, Wnt5a derived peptide]
- relative invasion (22Rv1 cells; Foxy-5 100 microM, FIG. 6A): significantly inhibited the invasion
- relative invasion (DU145 cells; Foxy-5 100 microM, FIG. 6B): significantly inhibited the invasion

B1: rWnt5a: recombinant Wnt5a protein (rWnt5a, R&D Systems, Minneapolis, Minn.) (protein, UniProt P41221 62-380, looked up)
Protein Wnt-5a: IIGAQPLCSQLAGLSQGQKKLCHLYQDHMQYIGEGAKTGIKECQYQFRHRRWNCSTVDNTSVFGRVMQIGSRETAFTYAVSAAGVVNAMSRACREGELSTCGCSRAARPKDLPRDWLWGGCGDNIDYGYRFAKEFVDARERERIHAKGSYESARILMNLHNNEAGRRTVYNLADVACKCHGVSGSCSLKTCWLQLADFRKVGDALKEKYDSAAAMRLNSRGKLVQVNSRFNSPTTQDLVYIDPSPDYCVRNESTGSLGTQGRLCNKTSEGMDGCELMCCGRGYDQFKTVQTERCHCKFHWCCYVKCKKCTEIVDQFVCK
- relative invasion (22Rv1 cells; rWnt5a 0.4 μg/ml, vs vehicle, p=0.0001, FIG. 3B): decreased the invasive behavior
- relative invasion (LNCaP cells): Neither the LNCaP nor the PC3 cells did respond
- relative invasion (PC3 cells [1]): Neither the LNCaP nor the PC3 cells did respond
- response in migration wound scratch assay (PC3 cells [2]): did not respond
- relative invasion (DU145 cells; rWnt5a 0.4 μg/ml, vs vehicle, p<0.0001, FIG. 3B): decreased the invasive behavior
